Key:
[1] = biological target: T1, Rabbit skeletal muscle actin (filaments) (rabbit, UniProt P68135 1-377); experiment: co-sedimentation; high-speed co-sedimentation; Drp1 1.3 uM with pre-polymerized actin filaments 0.25-10 uM, 1 hr at 23 C, 200 ul, ionic strength 75 mM (NaCl); 80,000 rpm 20 min 4 C (TLA-100.1); pellets on SDS-PAGE, Colloidal blue, ImageJ; apparent Kd; conditions: both partners purified
[2] = biological target: T1, Rabbit skeletal muscle actin (filaments); experiment: cell-based or functional assay

- Kd [1]: 800 ± 400 nM
- Drp1 GTPase activity (malachite green phosphate release) with 0.5 or 1 uM pre-polymerized actin filaments, against Drp1 alone [2]: ~3.5 fold
B1: Human Drp1 isoform 000 (E. coli-purified) (enzyme)
chain: MEALIPVINKLQDVFNTVGADIIQLPQIVVVGTQSSGKSSVLESLVGRDLLPRGTGIVTRRPLILQLVHVSQEDKRKTTGEENGVEAEEWGKFLHTKNKLYTDFDEIRQEIENETERISGNNKGVSPEPIHLKIFSPNVVNLTLVDLPGMTKVPVGDQPKDIELQIRELILRFISNPNSIILAVTAANTDMATSEALKISREVDPDGRRTLAVITKLDLMDAGTDAMDVLMGRVIPVKLGIIGVVNRSQLDINNKKSVTDSIRDEYAFLQKKYPSLANRNGTKYLARTLNRLLMHHIRDCLPELKTRINVLAAQYQSLLNSYGEPVDDKSATLLQLITKFATEYCNTIEGTAKYIETSELCGGARICYIFHETFGRTLESVDPLGGLNTIDILTAIRNATGPRPALFVPEVSFELLVKRQIKRLEEPSLRCVELVHEEMQRIIQHCSNYSTQELLRFPKLHDAIVEVVTCLLRKRLPVTNEMVHNLVAIELAYINTKHPDFADACGLMNNNIEEQRRNRLARELPSAVSRDKVASGGGGVGDGVQEPTTGNWRGMLKTSKAEELLAEEKSKPIPIMPASPQKGHAVNLLDVPVPVARKLSAREQRDCEVIERLIKSYFLIVRKNIQDSVPKAVMHFLVNHVKDTLQSELVGQLYKSSLLDDLLTESEDMAQRRKEAADMLKALQGASQIIAEIRETHLW
notes: Drp1 (dynamin-related protein 1), human, isoform 000 of Strack et al. 2013; Cloned in pET16b with an N-terminal Strep-tag followed by an HRV3C protease site; eluted from the resin by HRV3C cleavage; Used in high-speed co-sedimentation and GTPase assays; also called dynamin GTPase Drp1; not shown: Strep-tag, N-terminal, cleaved

Reference: paper PMC4755738, “Actin filaments target the oligomeric maturation of the dynamin GTPase Drp1 to mitochondrial fission sites” (eLife, 2015)
